By Km is commonly meant the substrate concentration at which the rate is half of its maximum.

These results are taken from patent US8304206B2, “Mass spectrometry assays for identifying compounds that activate deacetylases” (Sirtris Pharmaceuticals, Inc., priority 2005, dated 2012).

Substrate in the series: CCCC[C@H](NC(=O)[C@H](CCCCNC(C)=O)NC(=O)[C@H](CO)NC(=O)[C@H](Cc1c[nH]cn1)NC(=O)[C@H](CO)NC(=O)[C@H](CO)NC(=O)[C@@H](NC(=O)[C@H](CO)NC(=O)[C@H](CCC(N)=O)NC(=O)CNC(=O)[C@H](CCCCNC(=O)CCCC[C@@H]1SC[C@@H]2NC(=O)N[C@@H]21)NC(=O)[C@H](CCC(=O)O)NC(=O)[C@H](CCC(=O)O)NC(C)=O)[C@@H](C)O)C(=O)N[C@@H](CO)C(=O)N[C@H](C(=O)N[C@@H](CCC(=O)O)C(=O)NCC(=O)N[C@@H](CCCCNC(=O)c1ccc2c(c1)C(=O)OC21c2ccc(N(C)C)cc2Oc2cc(N(C)C)ccc21)C(=O)N[C@@H](CCC(=O)O)C(=O)N[C@@H](CCC(=O)O)C(N)=O)[C@@H](C)O
Put plainly: SIRT1 Km for Acetylated Peptide Substrate (mass spectrometry). Conditions: pH 8.0, 25.0 °C. The format is biochemical, human. The protocol:
Briefly, 1 μL of vehicle (DMSO) was added to each well of a Costar 96-well clear round bottom assay plate and 10 μL of 10% formic acid was added to all of the wells in row A. The Acetylated Peptide Substrate was serially diluted. Wells A2, A3, A4, A5, A6, A7, A8, A9, A10, A11 and A12 of a Costar 2 mL 96 well Assay Block were filled with 600 μL of Substrate Dilution Working Solution (SDWS; 4 mM NAD^+, 50 mM Tris HCl pH 8.0, 137 mM NaCl, 2.7 mM KCl, 1 mM MgCl2, 5 mM DTT, and 0.05% BSA). […] The APSTD-WS was serially diluted into SDWS by transferring 600 μL of APSTD-WS from well A1 to […] of the Costar 2 mL 96 well Assay Block. The solution was mixed 5 times and the process was continued by moving across row A, until well A12 was reached.
The Enzyme Working Solution (20 nM SIRT1, 50 mM Tris HCl pH 8.0, 137 mM NaCl, 2.7 mM KCl, 1 mM MgCl2, 5 mM DTT, 0.05% BSA) was prepared. […]
At 0, 3, 6, 9, 12, 15, 20, and 25 minutes, the reaction was stopped with 10% formic acid and the conversion of substrate to product was determined by mass spectrometry.
SIRT1 enzyme activity at 12 concentrations of SIRT1 Acetylated Peptide Substrate was monitored by comparing the percent conversion of Acetylated Peptide Substrate to Deacetylated Peptide Product over time. The reaction rate at each substrate concentration was determined as the slope of the product formation versus time plot in the linear range. […]

Values joined by “and” are separate entries in the source; they are usually repeats but may differ in a detail not shown here. Equal values may be shown once.

B1: SIRT1 (Homo sapiens) (protein)
chain: MADEAALALQPGGSPSAAGADREAASSPAGEPLRKRPRRDGPGLERSPGEPGGAAPEREVPAAARGCPGAAAAALWREAEAEAAAAGGEQEAQATAAAGEGDNGPGLQGPSREPPLADNLYDEDDDDEGEEEEEAAAAAIGYRDNLLFGDEIITNGFHSCESDEEDRASHASSSDWTPRPRIGPYTFVQQHLMIGTDPRTILKDLLPETIPPPELDDMTLWQIVINILSEPPKRKKRKDINTIEDAVKLLQECKKIIVLTGAGVSVSCGIPDFRSRDGIYARLAVDFPDLPDPQAMFDIEYFRKDPRPFFKFAKEIYPGQFQPSLCHKFIALSDKEGKLLRNYTQNIDTLEQVAGIQRIIQCHGSFATASCLICKYKVDCEAVRGDIFNQVVPRCPRCPADEPLAIMKPEIVFFGENLPEQFHRAMKYDKDEVDLLIVIGSSLKVRPVALIPSSIPHEVPQILINREPLPHLHFDVELLGDCDVIINELCHRLGGEYAKLCCNPVKLSEITEKPPRTQKELAYLSELPPTPLHVSEDSSSPERTSPPDSSVIVTLLDQAAKSNDDLDVSESKGCMEEKPQEVQTSRNVESIAEQMENPDLKNVGSSTGEKNERTSVAGTVRKCWPNRVAKEQISRRLDGNQYLFLPPNRYIFHGAEVYSDSEDDVLSSSSCGSNSDSGTCQSPSLEEPMEDESEIEEFYNGLEDEPDVPERAGGAGFGTDGDDQEAINEAISVKQEVTDMNYPSNKS
notes: The SirT1 gene was cloned into a T7-promoter containing vector and transformed into BL21(DE3); His-tag (N); made in house; host or cells: E. coli BL21(DE3)
For B1, the Km is 11.6 µM (other: Sirt1, Mass Spectrometry, present invention); 11.2 µM and 11.9 µM (other: single replicate plates, 2 mM NAD+, 1% DMSO).
